This passage reports smallest effective dose, proliferation of unstimulated LNCaP and PC-3 cells (MTS assay, doses 1-100 nM) results from patent US20080113343A1.

The test concerns the target human sPLA2-IIA (Type IIA secreted phospholipase A2) (human) (UniProt P14555). Nature of the test: cell-based or functional assay.

human sPLA2-IIA (Type IIA secreted phospholipase A2) (human), sequence (P14555 21-144 limits assumed): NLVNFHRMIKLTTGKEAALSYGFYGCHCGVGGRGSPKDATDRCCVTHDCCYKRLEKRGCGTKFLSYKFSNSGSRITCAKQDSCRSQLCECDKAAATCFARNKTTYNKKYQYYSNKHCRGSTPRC

With “c(2NapA)LS(2NapA)R (cyclic (2Nap)LS(2Nap)R) (peptide)”, the smallest effective dose, proliferation of unstimulated LNCaP and PC-3 cells (MTS assay, doses 1-100 nM) worked out at 1 nM.
